These results are taken from publication PMC12999518 (Nature Structural & Molecular Biology, 2026).

T1: Sea3 (yeast (endogenous, TB50 background), UniProt Q03897 1-1148)
T1 sequence (looked up): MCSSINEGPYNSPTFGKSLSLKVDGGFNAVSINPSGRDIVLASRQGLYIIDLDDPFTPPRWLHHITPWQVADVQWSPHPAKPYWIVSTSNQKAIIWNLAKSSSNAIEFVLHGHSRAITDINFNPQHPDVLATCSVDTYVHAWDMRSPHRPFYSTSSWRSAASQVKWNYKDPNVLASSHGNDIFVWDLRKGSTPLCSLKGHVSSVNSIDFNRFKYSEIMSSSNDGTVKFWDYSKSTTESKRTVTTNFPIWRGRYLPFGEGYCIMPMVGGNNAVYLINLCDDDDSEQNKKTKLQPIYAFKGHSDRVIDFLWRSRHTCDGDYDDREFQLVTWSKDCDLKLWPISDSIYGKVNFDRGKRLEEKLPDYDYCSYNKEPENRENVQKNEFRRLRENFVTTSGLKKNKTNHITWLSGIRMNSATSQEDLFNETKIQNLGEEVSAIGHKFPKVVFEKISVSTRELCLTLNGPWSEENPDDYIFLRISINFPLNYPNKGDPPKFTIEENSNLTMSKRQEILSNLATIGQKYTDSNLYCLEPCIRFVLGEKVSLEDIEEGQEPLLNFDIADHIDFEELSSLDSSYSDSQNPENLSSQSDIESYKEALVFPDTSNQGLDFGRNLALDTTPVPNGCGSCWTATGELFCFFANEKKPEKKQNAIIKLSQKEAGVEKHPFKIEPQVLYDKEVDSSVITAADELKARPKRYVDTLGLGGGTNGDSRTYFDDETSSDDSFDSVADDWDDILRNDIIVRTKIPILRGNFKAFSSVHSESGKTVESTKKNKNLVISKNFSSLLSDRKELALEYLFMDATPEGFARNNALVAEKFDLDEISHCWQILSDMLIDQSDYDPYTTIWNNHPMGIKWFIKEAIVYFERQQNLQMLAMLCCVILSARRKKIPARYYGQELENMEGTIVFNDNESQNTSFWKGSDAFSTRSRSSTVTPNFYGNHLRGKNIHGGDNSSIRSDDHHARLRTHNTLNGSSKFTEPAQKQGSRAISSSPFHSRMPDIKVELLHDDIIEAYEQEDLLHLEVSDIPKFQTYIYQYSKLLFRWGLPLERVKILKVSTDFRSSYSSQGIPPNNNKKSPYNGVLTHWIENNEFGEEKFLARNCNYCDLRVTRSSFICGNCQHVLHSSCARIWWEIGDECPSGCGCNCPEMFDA

B1: Gtr1 (natural protein, yeast, UniProt Q00582 1-310, looked up)
chain: MSSNNRKKLLLMGRSGSGKSSMRSIIFSNYSAFDTRRLGATIDVEHSHLRFLGNMTLNLWDCGGQDVFMENYFTKQKDHIFQMVQVLIHVFDVESTEVLKDIEIFAKALKQLRKYSPDAKIFVLLHKMDLVQLDKREELFQIMMKNLSETSSEFGFPNLIGFPTSIWDESLYKAWSQIVCSLIPNMSNHQSNLKKFKEIMNALEIILFERTTFLVICSSNGENSNENHDSSDNNNVLLDPKRFEKISNIMKNFKQSCTKLKSGFKTLILNNNIYVSELSSNMVCFIVLKDMNIPQELVLENIKKAKEFFQ
B2: Gtr2 (natural protein, yeast, UniProt P53290 1-341, looked up)
chain: MSLEATDSKAMVLLMGVRRCGKSSICKVVFHNMQPLDTLYLESTSNPSLEHFSTLIDLAVMELPGQLNYFEPSYDSERLFKSVGALVYVIDSQDEYINAITNLAMIIEYAYKVNPSINIEVLIHKVDGLSEDFKVDAQRDIMQRTGEELLELGLDGVQVSFYLTSIFDHSIYEAFSRIVQKLIPELSFLENMLDNLIQHSKIEKAFLFDVNSKIYVSTDSNPVDIQMYEVCSEFIDVTIDLFDLYKAPVLRNSQKSSDKDNVINPRNELQNVSQLANGVIIYLRQMIRGLALVAIIRPNGTDMESCLTVADYNIDIFKKGLEDIWANARASQAKNSIEDDV
B3: Npr2 (natural protein, yeast (endogenous, TB50 background), UniProt P39923 1-615, looked up)
chain: MLSYFQGFVPIHTIFYSVFHPTEGSKIKYEFPPNNLKNHGINFNTFKNYIIPKPILCHKLITFKYGTYRIVCYPVTINSPIYARNFFSFNFVFVFPYDCETSPYEPAITRLGKMFKVLEEQNQLLSKSERDPVFFDLKVLENSTTTPSTAGPSSTPNPSSNTTPTHPTSEKDTKDMRSSRYSDLIKDLGLPQSAFSIQDLLMRIFQDLNNYSECLIPIDEGNAVDIKIFPLLRPPTTCVSLEDVPLSSVNLKKIIDVNWDPTMMSIVPYIDGLNSIAKISKLSNSDPGLVIECIRHLIYYKCVTLSDIFQFSNIYAPSSLIRNFLTDPLMASDCQSYVTFPEVSKISNLPLNKSLGSGDQDSPSFSVRRKSKSSSIPSNPDSRTTSFSSTSRVSQNSSLNSSFSSIYKDWRQSQTSCSSSNIHVINNRNRFLPTRSCLFDLYRSLSQGQTLKTWYESKYMILKENNIDIRRFITFGLEKRIIYRCYSFPVMINAGSREPKEMTPIITKDLVNNDKLLEKRNHNHLLSATGSRNTAQSGNLKPERPSKVSFEMQRVSSLATGKSTMPKLSDEEEGILEESIRNAETFDKICVLLSKPKLEVESYLNELGEFKVINS

Common to all, as to experiment: cryo-EM structure
Assay [1] deals with B2.
The target in assay [2] is B3.
The target of assay [3] is Sea1 (yeast (endogenous, TB50 background), UniProt P47170 1-1584).
Assay [4] deals with T1, Sea3.

Sequence of Sea1 (P47170 whole entry): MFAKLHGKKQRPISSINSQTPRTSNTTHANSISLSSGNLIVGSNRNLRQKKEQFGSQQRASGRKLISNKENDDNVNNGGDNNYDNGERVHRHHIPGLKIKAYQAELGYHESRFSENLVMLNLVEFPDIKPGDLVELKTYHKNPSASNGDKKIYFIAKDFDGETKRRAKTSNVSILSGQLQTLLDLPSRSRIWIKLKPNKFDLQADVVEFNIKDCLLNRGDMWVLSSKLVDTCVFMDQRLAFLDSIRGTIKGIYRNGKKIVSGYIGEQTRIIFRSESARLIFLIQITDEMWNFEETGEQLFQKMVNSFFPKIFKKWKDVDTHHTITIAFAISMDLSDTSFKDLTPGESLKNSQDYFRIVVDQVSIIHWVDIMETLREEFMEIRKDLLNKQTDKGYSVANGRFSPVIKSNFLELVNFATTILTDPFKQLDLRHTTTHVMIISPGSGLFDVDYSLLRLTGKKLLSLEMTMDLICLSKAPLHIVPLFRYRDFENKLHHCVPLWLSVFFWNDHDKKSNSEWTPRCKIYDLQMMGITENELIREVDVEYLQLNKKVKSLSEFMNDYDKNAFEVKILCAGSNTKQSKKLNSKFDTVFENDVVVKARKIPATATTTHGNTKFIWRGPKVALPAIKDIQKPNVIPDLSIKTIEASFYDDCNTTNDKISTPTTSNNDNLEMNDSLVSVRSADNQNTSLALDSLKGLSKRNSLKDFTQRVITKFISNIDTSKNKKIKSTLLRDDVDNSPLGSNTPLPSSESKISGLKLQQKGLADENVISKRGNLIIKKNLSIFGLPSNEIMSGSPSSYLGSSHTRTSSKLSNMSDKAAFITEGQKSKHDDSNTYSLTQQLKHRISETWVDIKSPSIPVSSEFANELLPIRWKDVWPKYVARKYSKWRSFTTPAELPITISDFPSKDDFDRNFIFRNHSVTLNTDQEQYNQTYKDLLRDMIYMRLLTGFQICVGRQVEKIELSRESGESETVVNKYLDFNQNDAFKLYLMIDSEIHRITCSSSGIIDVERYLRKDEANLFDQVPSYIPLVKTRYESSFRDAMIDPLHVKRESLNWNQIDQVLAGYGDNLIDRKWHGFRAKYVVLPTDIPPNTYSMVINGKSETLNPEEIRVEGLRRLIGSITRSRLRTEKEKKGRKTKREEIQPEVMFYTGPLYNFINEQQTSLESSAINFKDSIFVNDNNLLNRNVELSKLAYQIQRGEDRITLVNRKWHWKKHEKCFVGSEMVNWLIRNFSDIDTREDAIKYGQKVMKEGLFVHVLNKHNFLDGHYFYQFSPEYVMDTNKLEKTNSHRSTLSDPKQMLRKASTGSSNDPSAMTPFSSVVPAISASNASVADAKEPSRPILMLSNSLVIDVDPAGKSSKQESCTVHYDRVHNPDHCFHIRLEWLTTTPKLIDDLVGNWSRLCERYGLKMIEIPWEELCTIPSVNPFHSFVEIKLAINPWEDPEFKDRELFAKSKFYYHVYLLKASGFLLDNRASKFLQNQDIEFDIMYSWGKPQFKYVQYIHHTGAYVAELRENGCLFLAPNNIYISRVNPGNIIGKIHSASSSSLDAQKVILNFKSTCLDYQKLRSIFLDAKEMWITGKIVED

For the molecule B1, the binding result in assay [1] and in assay [2] was “binds” each time.

In the case of B2, the binding result in assay [3] is given as “binds”.

In the case of B3, the binding result in assay [4] is “binds”.
